Measurements taken from patent publication US20050048600A1.

Biological target: human LH3 protein with His-tag at the amino-terminus, produced in Sf9 cells (human) (UniProt O60568)
Test: cell-based or functional assay

Sequence of human LH3 protein with His-tag at the amino-terminus, produced in Sf9 cells (human) (O60568 25-738): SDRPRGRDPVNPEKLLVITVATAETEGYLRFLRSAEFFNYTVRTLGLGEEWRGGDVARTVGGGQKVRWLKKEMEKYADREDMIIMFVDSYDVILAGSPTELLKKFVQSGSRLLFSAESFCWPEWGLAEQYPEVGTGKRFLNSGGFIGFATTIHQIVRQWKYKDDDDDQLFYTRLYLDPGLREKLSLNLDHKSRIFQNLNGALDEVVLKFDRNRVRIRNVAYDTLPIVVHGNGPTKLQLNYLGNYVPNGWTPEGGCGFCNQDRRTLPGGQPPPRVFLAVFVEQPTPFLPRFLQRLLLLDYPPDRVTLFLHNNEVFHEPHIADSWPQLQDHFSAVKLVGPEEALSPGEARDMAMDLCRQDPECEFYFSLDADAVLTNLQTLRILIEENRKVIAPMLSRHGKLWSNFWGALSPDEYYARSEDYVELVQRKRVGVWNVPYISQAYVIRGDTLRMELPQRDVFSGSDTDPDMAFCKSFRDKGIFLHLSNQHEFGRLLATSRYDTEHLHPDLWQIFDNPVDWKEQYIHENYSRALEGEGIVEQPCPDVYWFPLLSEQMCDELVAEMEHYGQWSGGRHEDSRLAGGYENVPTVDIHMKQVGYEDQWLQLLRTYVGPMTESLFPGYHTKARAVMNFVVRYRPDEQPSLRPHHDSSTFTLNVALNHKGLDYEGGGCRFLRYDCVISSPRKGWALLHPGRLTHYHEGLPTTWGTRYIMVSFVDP

GGT activity in the presence of antibody (% of activity with nonimmune serum): 100%
Substance: monoclonal antibodies against His-tag (Clontech) (antibody)
